The nature of this data set: Zeta Potential (surface charge) by electrophoretic mobility / PCS, PSS NICOMP 380 DLS/ZLS. The class given is physicochemical. As to conditions: FIG. 5; pH 7. The procedure: The surface charge (also referred to as Zeta potential) of the nanoparticles was determined by measuring their electrophoretic mobility using a PSS NICOMP™ 380 DLS/ZLS. Measurements were made at particle concentrations of 6 to 15 mg/ml, temperatures between room temperature to 50° C., and applying an external voltage of 5 Volts.
The surface charge (also referred to as Zeta potential or ζ-potential) may be measured using Zeta Sizer as e.g. PSS NICOMP™ 380 DLS/ZLS. Zeta Charge, or Net Surface Charge of a molecule or a particle is measured by PCS in the presence of an applied electrical field.

Take “human serum albumin [cleaned and stabilized albumin molecules]”: the “global surface charge, PCS based measurement of the Zeta Potential” value was “about −5 mV”.

Source of the values: patent US20220280659A1, “Targeted Nanoparticles of Well-Defined and Reproducible Sizes” (STAMS DIAGNOSTICS GMBH, priority 2019, published 2022).
